Test results reported in patent US20240270821A1, “GIP/GLP1/GCG TRI-RECEPTOR AGONISTS AND USES THEREOF” (priority 2023, published 2024).
Numbering of substitutions follows the chain as printed. Starred links: 1 amine or outer side, 2 acyl side, 3 side chain; linkers in the order of their positions; H or OH if unused. Non-standard residues stand in square brackets, D forms with d. Groups on a side chain read outwards from the residue. No end group written: not given here. *: point of attachment. C18 diacid = O=C(O)CCCCCCCCCCCCCCCCC(=O)*; γGlu = O=C(O)[C@H](CCC(=O)[*:2])N[*:1]; αMeL = CC(C)C[C@](C)(N)C(=O)O; Dap = NC[C@H](N)C(=O)O; AEEA = NCCOCCOCC(=O)O; Aib = CC(C)(N)C(=O)O

T1: human GIP receptor (human) (UniProt P48546)
T1 sequence (looked up): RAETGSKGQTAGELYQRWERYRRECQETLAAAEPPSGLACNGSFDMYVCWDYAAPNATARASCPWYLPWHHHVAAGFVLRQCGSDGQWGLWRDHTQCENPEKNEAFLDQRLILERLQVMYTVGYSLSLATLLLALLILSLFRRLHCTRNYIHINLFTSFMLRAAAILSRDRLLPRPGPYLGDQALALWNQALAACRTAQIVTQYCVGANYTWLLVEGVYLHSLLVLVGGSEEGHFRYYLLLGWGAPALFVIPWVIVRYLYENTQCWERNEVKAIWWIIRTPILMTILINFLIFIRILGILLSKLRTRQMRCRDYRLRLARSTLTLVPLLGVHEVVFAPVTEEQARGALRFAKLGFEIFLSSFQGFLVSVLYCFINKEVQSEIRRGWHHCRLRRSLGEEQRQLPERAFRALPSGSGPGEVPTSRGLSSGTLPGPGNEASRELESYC

B1: Example 1026 (peptide)
chain: YXQGTFTSDXSQXLDXKAQXQFIEXLIEGGPSSGEPPPSGSEE
modifications: non-natural residues, lipidated Lys, C-terminal amide; synthetic construct; SITE 2: note = 2-Aminoisobutyric Acid; SITE 10: note = 3-(4-Pyridyl)-L-alanine; SITE 13: note = alpha-methyl-leucine; SITE 16: note = L-ornithine; SITE 17: note = Lysine is chemically modified through conjugation of the epsilon-amino group of the Lysine side chain with (gamma-Gl)
B2: Example 107 (peptide)
chain: YXQGTFTSDFSXXLDKKAQXAFIEYLLEGGPSSGAPPPSGE
modifications: synthetic construct; SITE 2: note = 2-Aminoisobutyric Acid; SITE 12: note = L-ornithine; SITE 13: note = alpha-methyl-leucine; SITE 17: note = Lysine is chemically modified through conjugation of the epsilon-amino group of the Lysine side chain with (2-[2-(2-Amino-ethoxy)-ethoxy]-acetyl)2-(gamma-Glu)
B3: Example 121 (peptide)
chain: B2 chain with Y25W, S39E, E41S
modifications: synthetic construct; SITE 2: note = 2-Aminoisobutyric Acid; SITE 12: note = L-ornithine; SITE 13: note = alpha-methyl-leucine; SITE 17: note = Lysine is chemically modified through conjugation of the epsilon-amino group of the Lysine side chain with (2-[2-(2-Amino-ethoxy)-ethoxy]-acetyl)-(gamma-Glu)
B4: Example 116 (peptide)
chain: B2 chain with G29A, A35E, G40E, E41G
modifications: synthetic construct; SITE 2: note = 2-Aminoisobutyric Acid; SITE 12: note = L-ornithine; SITE 13: note = alpha-methyl-leucine; SITE 17: note = Lysine is chemically modified through conjugation of the epsilon-amino group of the Lysine side chain with (2-[2-(2-Amino-ethoxy)-ethoxy]-acetyl)2-(gamma-Glu)
B5: Example 125 (peptide)
chain: B2 chain with Y25W, P31E, S39E, E41S
modifications: synthetic construct; SITE 2: note = 2-Aminoisobutyric Acid; SITE 12: note = L-ornithine; SITE 13: note = alpha-methyl-leucine; SITE 17: note = Lysine is chemically modified through conjugation of the epsilon-amino group of the Lysine side chain with (2-[2-(2-Amino-ethoxy)-ethoxy]-acetyl)-(gamma-Glu)
B6: Example 137 (peptide)
chain: B2 chain with Y25W, P37X
modifications: synthetic construct; SITE 2: note = 2-Aminoisobutyric Acid; SITE 12: note = L-ornithine; SITE 13: note = alpha-methyl-leucine; SITE 17: note = Lysine is chemically modified through conjugation of the epsilon-amino group of the Lysine side chain with (2-[2-(2-Amino-ethoxy)-ethoxy]-acetyl)-(gamma-Glu)
B7: Example 114 (peptide)
chain: B2 chain with F10X, X12R, G29X
modifications: synthetic construct; SITE 2: note = 2-Aminoisobutyric Acid; SITE 10: note = 3-(4-Pyridyl)-L-alanine; SITE 13: note = alpha-methyl-leucine; SITE 17: note = Lysine is chemically modified through conjugation of the epsilon-amino group of the Lysine side chain with (2-[2-(2-Amino-ethoxy)-ethoxy]-acetyl)
B8: Example 115 (peptide)
chain: B2 chain with F10X, Y25W, A35E
modifications: synthetic construct; SITE 2: note = 2-Aminoisobutyric Acid; SITE 10: note = 3-(4-Pyridyl)-L-alanine; SITE 12: note = L-ornithine; SITE 13: note = alpha-methyl-leucine; SITE 17: note = Lysine is chemically modified through conjugation of the epsilon-amino group of the Lysine side chain with (2-[2-(2-
B9: Example 122 (peptide)
chain: B2 chain with Y25W, P31H
modifications: synthetic construct; SITE 2: note = 2-Aminoisobutyric Acid; SITE 12: note = L-ornithine; SITE 13: note = alpha-methyl-leucine; SITE 17: note = Lysine is chemically modified through conjugation of the epsilon-amino group of the Lysine side chain with (2-[2-(2-Amino-ethoxy)-ethoxy]-acetyl)-(gamma-Glu)
B10: Example 118 (peptide)
chain: B2 chain with S39G, G40E, E41S
modifications: synthetic construct; SITE 2: note = 2-Aminoisobutyric Acid; SITE 12: note = L-ornithine; SITE 13: note = alpha-methyl-leucine; SITE 17: note = Lysine is chemically modified through conjugation of the epsilon-amino group of the Lysine side chain with (2-[2-(2-Amino-ethoxy)-ethoxy]-acetyl)2-(gamma-Glu)

The binders below were run against hGLP-1R (Homo sapiens, UniProt P43220) (assay: cell-based or functional assay).
Chain of hGLP-1R (P43220 24-463): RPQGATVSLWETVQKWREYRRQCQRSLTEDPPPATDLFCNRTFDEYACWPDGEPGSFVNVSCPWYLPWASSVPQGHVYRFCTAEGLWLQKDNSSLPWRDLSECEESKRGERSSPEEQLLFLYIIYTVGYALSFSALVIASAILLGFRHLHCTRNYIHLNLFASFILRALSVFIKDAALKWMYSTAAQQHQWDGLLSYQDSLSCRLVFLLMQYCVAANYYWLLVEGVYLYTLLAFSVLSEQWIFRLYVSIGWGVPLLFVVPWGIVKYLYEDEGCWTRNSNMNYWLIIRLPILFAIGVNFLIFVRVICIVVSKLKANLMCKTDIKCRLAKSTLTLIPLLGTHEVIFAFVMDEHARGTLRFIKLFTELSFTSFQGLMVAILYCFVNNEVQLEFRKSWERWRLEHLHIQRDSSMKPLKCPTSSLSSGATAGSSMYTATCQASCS
With Y[Aib]QGTFTSDFS[Dap][αMeL]LDKK([AEEA-γGlu-C18 diacid])AQ[Aib]AFIEYLLE[Aib]GPSSGAPPPSGS-NH2 (ends and bridges not checked) [Example 134] the Relative cAMP EC50 was 3.36 nM and the cAMP Rel EC50, nM (in the presence of 1% HSA) was 549 nM.
For B1, the Relative cAMP EC50 was 1.77 nM and the cAMP Rel EC50, nM (1% HSA) was 299 nM.
Work on B2 yielded a Relative cAMP EC50 of 8.5 nM and a cAMP Rel EC50, nM (in the presence of 1% HSA) of 1110 nM.
For B3, the Relative cAMP EC50 was 2.38 nM and the cAMP Rel EC50, nM (in the presence of 1% HSA) was 348 nM.
Binder B4 has a Relative cAMP EC50 of 7.83 nM and a cAMP Rel EC50, nM (in the presence of 1% HSA) of 401 nM.
Work on B5 yielded a Relative cAMP EC50 of 4.12 nM and a cAMP Rel EC50, nM (in the presence of 1% HSA) of 1050 nM.
Binder B6 has a Relative cAMP EC50 of 3.18 nM and a cAMP Rel EC50, nM (in the presence of 1% HSA) of 447 nM.
For B7, the cAMP Rel EC50, nM (in the presence of 1% HSA) was 1370 nM.
B8 was tested, and the Relative cAMP EC50 was 7.6 nM and the cAMP Rel EC50, nM (in the presence of 1% HSA) was 1460 nM.
For B9, the Relative cAMP EC50 was 3.93 nM and the cAMP Rel EC50, nM (in the presence of 1% HSA) was 468 nM.
B10 gave a Relative cAMP EC50 of 6.03 nM and a cAMP Rel EC50, nM (in the presence of 1% HSA) of 1450 nM.

These binders were tested against T1, human GIP receptor (human) (assay: cell-based or functional assay).
Y[Aib]QGTFTSDFS[Dap][αMeL]LDKK([AEEA-γGlu-C18 diacid])AQ[Aib]AFIEYLLE[Aib]GPSSGAPPPSGS-NH2 (ends and bridges not checked) [Example 134] showed a Relative cAMP EC50 of 0.152 nM and a cAMP Rel EC50, nM (in the presence of 1% HSA) of 38.3 nM.
B1 showed a Relative cAMP EC50 of 0.308 nM and a cAMP Rel EC50, nM (1% HSA) of 61.3 nM.
In the case of B2, the Relative cAMP EC50 is reported as 0.426 nM and the cAMP Rel EC50, nM (in the presence of 1% HSA) is reported as 61.3 nM.
For B3, the Relative cAMP EC50 was 0.172 nM and the cAMP Rel EC50, nM (in the presence of 1% HSA) was 24.6 nM.
B4 was tested, and the Relative cAMP EC50 was 0.382 nM and the cAMP Rel EC50, nM (in the presence of 1% HSA) was 40.4 nM.
Work on B5 yielded a Relative cAMP EC50 of 0.503 nM and a cAMP Rel EC50, nM (in the presence of 1% HSA) of 67.8 nM.
Work on B6 yielded a Relative cAMP EC50 of 0.269 nM and a cAMP Rel EC50, nM (in the presence of 1% HSA) of 23.7 nM.
B7 gave a cAMP Rel EC50, nM (in the presence of 1% HSA) of 19.6 nM.
Work on B8 yielded a Relative cAMP EC50 of 0.457 nM and a cAMP Rel EC50, nM (in the presence of 1% HSA) of 73.9 nM.
Work on B9 yielded a Relative cAMP EC50 of 0.189 nM and a cAMP Rel EC50, nM (in the presence of 1% HSA) of 32.6 nM.
B10 gave a Relative cAMP EC50 of 0.43 nM and a cAMP Rel EC50, nM (in the presence of 1% HSA) of 63.4 nM.

These binders were tested against human GLP-1R (SNAP-GLP-1R expressed in HEK293 cells) (human) (UniProt P43220) (assay: cell-based or functional assay).
Chain of human GLP-1R (SNAP-GLP-1R expressed in HEK293 cells) (human) (P43220 24-463): as above
Y[Aib]QGTFTSDFS[Dap][αMeL]LDKK([AEEA-γGlu-C18 diacid])AQ[Aib]AFIEYLLE[Aib]GPSSGAPPPSGS-NH2 (ends and bridges not checked) [Example 134] gave a GLP1R Internalization EC50 of 67.9 nM and an Internalization % TOP of 22.3%.
B1 gave a GLP1R Internalization EC50 of 47.4 nM and an Internalization % TOP of 80%.
For B2, the GLP1R Internalization EC50 was 150 nM and the Internalization % TOP was 45.1%.
With B3 the GLP1R Internalization EC50 was 38.1 nM and the Internalization % TOP was 46.3%.
B4 showed a GLP1R Internalization EC50 of 80.7 nM and an Internalization % TOP of 46.2%.
In the case of B5, the GLP1R Internalization EC50 is reported as 86.4 nM and the Internalization % TOP is reported as 42.6%.
Binder B6 has a GLP1R Internalization EC50 of 60.2 nM and an Internalization % TOP of 47.7%.
For B7, the GLP1R Internalization EC50 was 47.2 nM and the Internalization % TOP was 62.9%.
With B8 the GLP1R Internalization EC50 was 255 nM and the Internalization % TOP was 56.5%.
B9 gave a GLP1R Internalization EC50 of 57.4 nM and an Internalization % TOP of 43.7%.
B10 showed a GLP1R Internalization EC50 of 82.3 nM and an Internalization % TOP of 46.4%.

Each binder was assayed against human glucagon receptor (human) (UniProt P47871) (assay: cell-based or functional assay).
Chain of human glucagon receptor (human) (P47871 26-477): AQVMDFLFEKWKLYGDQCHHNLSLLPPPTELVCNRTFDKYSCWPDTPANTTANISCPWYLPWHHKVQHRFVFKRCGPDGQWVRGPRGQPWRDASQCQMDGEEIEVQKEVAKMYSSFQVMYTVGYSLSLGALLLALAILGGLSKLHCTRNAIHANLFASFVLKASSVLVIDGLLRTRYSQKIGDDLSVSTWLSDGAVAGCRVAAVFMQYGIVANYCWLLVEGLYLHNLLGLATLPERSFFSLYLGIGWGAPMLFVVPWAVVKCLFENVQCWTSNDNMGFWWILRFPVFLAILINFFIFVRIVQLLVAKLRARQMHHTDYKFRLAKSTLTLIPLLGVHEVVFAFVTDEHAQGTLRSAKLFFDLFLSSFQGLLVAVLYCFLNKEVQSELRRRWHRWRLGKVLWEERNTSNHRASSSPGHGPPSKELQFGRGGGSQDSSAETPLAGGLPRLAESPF
For Y[Aib]QGTFTSDFS[Dap][αMeL]LDKK([AEEA-γGlu-C18 diacid])AQ[Aib]AFIEYLLE[Aib]GPSSGAPPPSGS-NH2 (ends and bridges not checked) [Example 134], the Relative cAMP EC50 was 7.28 nM and the cAMP Rel EC50, nM (in the presence of 1% HSA) was 1200 nM.
B1 showed a Relative cAMP EC50 of 6.32 nM and a cAMP Rel EC50, nM (1% HSA) of 2080 nM.
In the case of B2, the Relative cAMP EC50 is reported as 10.8 nM and the cAMP Rel EC50, nM (in the presence of 1% HSA) is reported as 1690 nM.
B3 showed a Relative cAMP EC50 of 4.89 nM and a cAMP Rel EC50, nM (in the presence of 1% HSA) of 442 nM.
B4 gave a Relative cAMP EC50 of 3.96 nM and a cAMP Rel EC50, nM (in the presence of 1% HSA) of 882 nM.
In the case of B5, the Relative cAMP EC50 is reported as 3.97 nM and the cAMP Rel EC50, nM (in the presence of 1% HSA) is reported as 901 nM.
Work on B6 yielded a Relative cAMP EC50 of 4.43 nM and a cAMP Rel EC50, nM (in the presence of 1% HSA) of 905 nM.
In the case of B7, the cAMP Rel EC50, nM (in the presence of 1% HSA) is reported as 1120 nM.
Binder B8 has a Relative cAMP EC50 of 10.6 nM and a cAMP Rel EC50, nM (in the presence of 1% HSA) of 2210 nM.
B9 was tested, and the Relative cAMP EC50 was 3.95 nM and the cAMP Rel EC50, nM (in the presence of 1% HSA) was 548 nM.
B10 gave a Relative cAMP EC50 of 7.02 nM and a cAMP Rel EC50, nM (in the presence of 1% HSA) of 2460 nM.
